B1: Sentrin-specific protease 7 (Homo sapiens), Q9BQF6 (parent)
chain: MDKRKLGRRPSSSEIITEGKRKKSSSDLSEIRKMLNAKPEDVHVQSPLSKFRSSERWTLPLQWERSLRNKVISLDHKNKKHIRGCPVTSKSSPERQLKVMLTNVLWTDLGRKFRKTLPRNDANLCDANKVQSDSLPSTSVDSLETCQKLEPLRQSLNLSERIPRVILTNVLGTELGRKYIRTPPVTEGSLSDTDNLQSEQLSSSSDGSLESYQNLNPHKSCYLSERGSQRSKTVDDNSAKQTAHNKEKRRKDDGISLLISDTQPEDLNSGSRGCDHLEQESRNKDVKYSDSKVELTLISRKTKRRLRNNLPDSQYCTSLDKSTEQTKKQEDDSTISTEFEKPSENYHQDPKLPEEITTKPTKSDFTKLSSLNSQELTLSNATKSASAGSTTETVENSNSIDIVGISSLVEKDENELNTIEKPILRGHNEGNQSLISAEPIVVSSDEEGPVEHKSSEILKLQSKQDRETTNENESTSESALLELPLITCESVQMSSELCPYNPVMENISSIMPSNEMDLQLDFIFTSVYIGKIKGASKGCVTITKKYIKIPFQVSLNEISLLVDTTHLKRFGLWKSKDDNHSKRSHAILFFWVSSDYLQEIQTQLEHSVLSQQSKSSEFIFLELHNPVSQREELKLKDIMTEISIISGELELSYPLSWVQAFPLFQNLSSKESSFIHYYCVSTCSFPAGVAVAEEMKLKSVSQPSNTDAAKPTYTFLQKQSSGCYSLSITSNPDEEWREVRHTGLVQKLIVYPPPPTKGGLGVTNEDLECLEEGEFLNDVIIDFYLKYLILEKASDELVERSHIFSSFFYKCLTRKENNLTEDNPNLSMAQRRHKRVRTWTRHINIFNKDYIFVPVNESSHWYLAVICFPWLEEAVYEDFPQTVSQQSQAQQSQNDNKTIDNDLRTTSTLSLSAEDSQSTESNMSVPKKMCKRPCILILDSLKAASVQNTVQNLREYLEVEWEVKLKTHRQFSKTNMVDLCPKVPKQDNSSDCGVYLLQYVESFFKDPIVNFELPIHLEKWFPRHVIKTKREDIRELILKLHLQQQKGSSS

Variants of B1 are the subject of one assay. Particulars: with tif1b_human TRIM28, Q13263.
Chain of tif1b_human TRIM28, Q13263 (Q13263 whole entry): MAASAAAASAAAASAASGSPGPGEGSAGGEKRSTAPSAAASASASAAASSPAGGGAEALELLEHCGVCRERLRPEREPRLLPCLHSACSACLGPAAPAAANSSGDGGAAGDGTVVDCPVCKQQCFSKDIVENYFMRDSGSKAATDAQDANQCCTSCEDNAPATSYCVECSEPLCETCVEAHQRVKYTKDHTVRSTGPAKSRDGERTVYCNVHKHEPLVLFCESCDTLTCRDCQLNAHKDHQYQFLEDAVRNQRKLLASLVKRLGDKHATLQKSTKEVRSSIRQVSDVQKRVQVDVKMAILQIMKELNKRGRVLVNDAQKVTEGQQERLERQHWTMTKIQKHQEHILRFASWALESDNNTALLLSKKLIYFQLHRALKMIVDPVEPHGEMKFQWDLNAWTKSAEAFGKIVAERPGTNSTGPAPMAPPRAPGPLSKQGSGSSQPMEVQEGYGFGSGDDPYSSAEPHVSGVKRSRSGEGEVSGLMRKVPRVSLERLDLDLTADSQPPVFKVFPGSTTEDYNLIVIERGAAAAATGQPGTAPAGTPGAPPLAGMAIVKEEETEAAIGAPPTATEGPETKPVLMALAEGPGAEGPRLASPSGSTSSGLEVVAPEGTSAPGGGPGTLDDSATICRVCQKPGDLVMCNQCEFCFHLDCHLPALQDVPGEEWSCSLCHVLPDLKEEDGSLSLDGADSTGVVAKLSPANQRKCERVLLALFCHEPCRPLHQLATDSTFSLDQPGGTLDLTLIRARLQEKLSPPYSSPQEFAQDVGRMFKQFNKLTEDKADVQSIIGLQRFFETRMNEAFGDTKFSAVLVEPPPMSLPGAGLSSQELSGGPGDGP
Regarding C992A, the “effect of a mutation on the interaction” value is “increasing interaction”.

Another assay covers variants of B1. Particulars: with cbx5_human CBX5, P45973.
Chain of cbx5_human CBX5, P45973 (P45973 whole entry): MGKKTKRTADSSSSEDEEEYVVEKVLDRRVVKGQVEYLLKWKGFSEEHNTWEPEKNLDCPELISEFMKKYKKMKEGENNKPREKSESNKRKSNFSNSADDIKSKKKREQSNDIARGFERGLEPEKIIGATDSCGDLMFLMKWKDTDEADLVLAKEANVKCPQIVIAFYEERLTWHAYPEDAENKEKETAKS
As to L149A;L152A;L156A;L158A;P163A;V165A, the “effect of a mutation on the interaction” value is listed as “disrupting interaction”.

Another assay covers variants of B1. As to conditions: with tif1b_human TRIM28, Q13263. The source holds these as a separate data set.
Turning to L149A;L152A;L156A;L158A;P163A;V165A, the “effect of a mutation on the interaction” value was “disrupting interaction”.
